Patent US20160347840A1 (Janssen / Centocor, published 2016)

T1: cynomolgus PSMA extracellular domain (PSMW1), 6His and Avi tag (cynomolgus, UniProt Q04609 44-750 (human entry), biotinylated in bead-based selections and the ELISA screen)
T1 construct: Cloned along with a 6His and Avi tag; also called cynomolgus monkey PSMA; pan 230
T1 chain: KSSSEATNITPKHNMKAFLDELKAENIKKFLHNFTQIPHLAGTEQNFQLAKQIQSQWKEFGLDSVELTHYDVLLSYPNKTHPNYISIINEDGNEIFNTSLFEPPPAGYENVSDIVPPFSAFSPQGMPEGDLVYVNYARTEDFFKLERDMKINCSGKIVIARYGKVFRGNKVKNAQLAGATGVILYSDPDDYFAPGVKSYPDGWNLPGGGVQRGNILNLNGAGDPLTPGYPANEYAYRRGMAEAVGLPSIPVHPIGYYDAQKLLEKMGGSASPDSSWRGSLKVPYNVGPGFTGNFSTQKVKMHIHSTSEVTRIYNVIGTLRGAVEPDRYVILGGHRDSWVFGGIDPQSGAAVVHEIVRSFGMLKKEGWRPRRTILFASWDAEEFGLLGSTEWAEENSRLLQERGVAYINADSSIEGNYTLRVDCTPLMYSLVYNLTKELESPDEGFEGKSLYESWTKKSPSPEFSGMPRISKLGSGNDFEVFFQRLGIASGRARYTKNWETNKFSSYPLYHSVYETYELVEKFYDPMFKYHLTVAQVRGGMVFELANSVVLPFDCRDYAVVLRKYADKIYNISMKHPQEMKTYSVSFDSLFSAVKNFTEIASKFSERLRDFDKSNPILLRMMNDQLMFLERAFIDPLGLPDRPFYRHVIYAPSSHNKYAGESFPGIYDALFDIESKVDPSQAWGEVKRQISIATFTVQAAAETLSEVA

T2: chimpanzee PSMA extracellular domain (PSMW8), 6His and Avi tag (chimpanzee, UniProt Q04609 44-750 (human entry), biotinylated in bead-based selections and the ELISA screen)
T2 construct: Cloned along with a 6His and Avi tag; Buffer with ZnCl2 to stabilise PSMA dimerisation; also called pan 229
T2 chain: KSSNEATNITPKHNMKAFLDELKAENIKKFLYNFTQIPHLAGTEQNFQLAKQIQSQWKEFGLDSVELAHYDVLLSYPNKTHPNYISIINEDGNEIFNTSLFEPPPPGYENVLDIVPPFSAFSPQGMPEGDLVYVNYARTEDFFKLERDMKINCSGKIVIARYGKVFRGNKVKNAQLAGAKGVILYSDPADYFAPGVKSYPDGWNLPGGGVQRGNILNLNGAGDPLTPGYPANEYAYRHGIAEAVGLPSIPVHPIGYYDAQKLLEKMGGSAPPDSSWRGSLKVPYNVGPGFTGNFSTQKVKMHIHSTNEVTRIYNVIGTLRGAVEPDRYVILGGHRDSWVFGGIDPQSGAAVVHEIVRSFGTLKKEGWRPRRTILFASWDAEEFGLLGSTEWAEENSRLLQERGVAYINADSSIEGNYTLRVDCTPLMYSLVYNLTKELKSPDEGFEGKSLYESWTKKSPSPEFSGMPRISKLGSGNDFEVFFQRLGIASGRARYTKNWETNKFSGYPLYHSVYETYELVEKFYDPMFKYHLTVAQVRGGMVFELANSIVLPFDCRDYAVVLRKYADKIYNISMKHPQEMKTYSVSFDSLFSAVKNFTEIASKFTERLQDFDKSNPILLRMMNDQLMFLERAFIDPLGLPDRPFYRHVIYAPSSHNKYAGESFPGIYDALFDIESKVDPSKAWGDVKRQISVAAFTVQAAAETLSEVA


How the values were obtained:
[1] = biological target: T3, human PSMA on tumor cells (LNCaP, MDA-PCA-2B, VCAP, 22Rv1) (human, UniProt Q04609 1-750); experiment: cell-based or functional assay
T3 sequence (Q04609 whole entry, the tested form may be a part): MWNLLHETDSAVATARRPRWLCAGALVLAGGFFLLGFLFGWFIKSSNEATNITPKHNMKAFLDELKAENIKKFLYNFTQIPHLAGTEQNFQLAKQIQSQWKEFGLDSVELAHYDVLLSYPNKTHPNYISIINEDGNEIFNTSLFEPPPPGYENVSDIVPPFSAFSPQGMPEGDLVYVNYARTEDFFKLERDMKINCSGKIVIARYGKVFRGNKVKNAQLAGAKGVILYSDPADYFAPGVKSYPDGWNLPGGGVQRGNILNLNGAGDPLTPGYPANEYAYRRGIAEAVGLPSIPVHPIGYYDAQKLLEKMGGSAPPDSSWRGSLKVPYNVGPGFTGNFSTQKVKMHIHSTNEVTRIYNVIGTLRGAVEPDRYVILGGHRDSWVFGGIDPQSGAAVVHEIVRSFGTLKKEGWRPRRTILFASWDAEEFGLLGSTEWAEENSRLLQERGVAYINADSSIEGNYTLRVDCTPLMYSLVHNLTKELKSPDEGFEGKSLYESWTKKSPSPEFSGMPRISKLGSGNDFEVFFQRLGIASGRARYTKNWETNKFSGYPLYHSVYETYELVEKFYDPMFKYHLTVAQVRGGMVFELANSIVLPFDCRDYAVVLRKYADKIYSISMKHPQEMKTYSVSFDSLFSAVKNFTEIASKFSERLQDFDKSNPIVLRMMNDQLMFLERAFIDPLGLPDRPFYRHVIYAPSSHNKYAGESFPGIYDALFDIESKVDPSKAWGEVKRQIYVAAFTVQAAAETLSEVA

[2] = biological target: T1, cynomolgus PSMA extracellular domain …; experiment: hit from CIS-display panning and ELISA screen on PSMA of this species (column Antigen species)
[3] = biological target: T3, human PSMA on tumor cells (LNCaP, …); experiment: cell-based or functional assay; remark: listed apart in the source
[4] = biological target: T2, chimpanzee PSMA extracellular domain …; experiment: hit from CIS-display panning and ELISA screen on PSMA of this species (column Antigen species)
[5] = biological target: T4, cynomolgus CD3E on primary cynomolgus CD4+ T cells (cynomolgus, UniProt Q95LI5 22-198); experiment: flow cytometry on primary cynomolgus CD4+ T cells
T4 construct: whole, on cells; On the cells CD3E stands in the CD3/T cell receptor complex
T4 sequence (Q95LI5 22-198): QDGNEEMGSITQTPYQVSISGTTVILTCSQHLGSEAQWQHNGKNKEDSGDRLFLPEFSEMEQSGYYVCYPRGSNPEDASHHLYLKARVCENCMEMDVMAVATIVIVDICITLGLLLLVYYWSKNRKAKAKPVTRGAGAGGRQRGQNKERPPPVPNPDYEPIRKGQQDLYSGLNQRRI
Description: (§1) The resulting panel of anti-CD3 antibodies was tested for binding against cell-surface CD3E on primary human T cells. To do this, binding of antibodies from expression supernatants was visualized using a polyclonal anti-human secondary antibody and analyzed by flow cytometry. Briefly, binding of anti-CD3 antibodies to cell-surface CD3E was assessed by flow cytometry using primary Human T lymphocytes purified by negative selection (Biological Specialty, Colmar, USA). Expression supernatants or purified antibodies were normalized to 10 μg/ml in media or FACS buffer (BD BioSciences), respectively. 2×10⁵ cells were aliquoted into wells of a 96 well round-bottomed plate (CoStar) for labeling. Antibodies in expression supernatant were added to cells and incubated for 45 min at 4° C. Following centrifugation at 1300 rpm for 3 min and removal of supernatant, 50 μL of anti-human IgG (H+L) Alexa Fluor 647 secondary antibody (Life technologies Inc.) was incubated with the cells at a final concentration of 10 μg/mL for 30 min at 4° C. away from direct light. Following washing and resuspension in 30 μL FACs buffer (BD BioSciences). Sample collection was performed on an Intellicyt HTFC system using ForeCyt software. Viable single cells were gated prior to analysis of binding using the green or red fixable live/dead dyes (Life Technologies Inc.) and forward/side scatter area and height parameters, respectively. Graphs were generated in GraphPad Prism version 5 using mean fluorescence intensity values.
Binding analysis of the anti-CD3 hits to primary cynomolgusCD4+ T cells was then tested in order to assess the retention of cross-reactivity. Purified CD4+ T cells from the peripheral blood of cynomolgus monkeys (Zen Bio, Triangle Research Park, USA were used). Assay protocols were similar to those described above. […] This included the strong binders CD3B150, CD3B151 and CD3B154, in which binding was reduced, and several weak binders where binding could no longer be detected over background.

[6] = biological target: T5, cell-surface CD3E on primary human T cells (human, UniProt P07766 23-207); experiment: flow cytometry on primary human T cells, anti-human IgG Alexa Fluor 647 secondary
T5 construct: whole, on cells; On the cells CD3E stands in the CD3/T cell receptor complex; also called human CD3
T5 sequence (P07766 23-207): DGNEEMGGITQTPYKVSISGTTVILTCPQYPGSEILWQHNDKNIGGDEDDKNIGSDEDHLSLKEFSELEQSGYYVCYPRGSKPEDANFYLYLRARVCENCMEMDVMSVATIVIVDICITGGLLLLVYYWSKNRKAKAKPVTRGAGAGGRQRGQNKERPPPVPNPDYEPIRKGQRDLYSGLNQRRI
Description: as §1
Two in-house phage-derived antibodies with the same Fc region as the therapeutic antibodies were used as controls: G11 (HC SEQ ID NO:176, LC SEQ ID NO:177), a non-cyno cross-reactive, agonistic antibody was used as a positive control and CD3B94 (HC-SEQ ID NO:178, LC—SEQ ID NO:179) a non-binder/non-agonistic antibody was used to assess non-specific binding. The commercial SP34 antibody was not used as a comparator in this assay since it is a mouse antibody and the use of a different secondary detection reagent would have prohibited direct comparison with the variants tested.

| Binder | LNCaP IC50 (nM), cytotoxicity of the FN3 domain-vcMMAF conjugate (CellTiter-Glo) [1] | binding result [2] | other results |
| --- | --- | --- | --- |
| P234CR9_H01 (designed binder, not shown: C-terminal poly-histidine tag) LPAPKNLVVSRVTEDSARLSWEWWVIPGDFDSFLIQYQESEKVGEAIVLTVPGSERSYDLTGLKPGTEYTVSIYGVVNSGQWNDTSNPLSAIFTT | 22.6 nM | binds | LNCaP cells IC50 (nM), cytotoxicity of FN3 domain-drug conjugate [3]: 22.6 nM; MDA-PCA-2B cells IC50 (nM), cytotoxicity of FN3 domain-drug conjugate [3]: 151 nM; VCAP cells IC50 (nM), cytotoxicity of FN3 domain-drug conjugate [3]: 401 nM |
| P258AR6P1070_A05 (designed binder, not shown: C-terminal poly-histidine tag) LPAPKNLVVSRVTEDSARLSWTIDEQRDWFDSFLIQYQESEKVGEAIVLTVPGSERSYDLTGLKPGTEYTVSIYGVYHVYRSNPLSAIFTT | 4.6 nM | binds |  |
| P258AR6P1071_D02 (designed binder, not shown: C-terminal poly-histidine tag) LPAPKNLVVSRVTEDSARLSWAIDEQRDWFESFLIQYQESEKVGEAIVLTVPGSERSYDLTGLKPGTEYTVSIYGVYHVYRSNPLSAIFTT | 0.8 nM | binds |  |
| P258AR6P1070_F09 (designed binder, not shown: C-terminal poly-histidine tag) LPAPKNLVVSRVTEDSARLSWTIDEQRDWFESFLIQYQESEKVGEAIVLTVPGSERSYDLTGLKPGTEYTVSIYGVYHVYRSNPLSAIFTT | 0.9 nM | binds |  |
| P258AR6P1071_G03 (designed binder, not shown: C-terminal poly-histidine tag) LPAPKNLVVSRVTEDSARLSWDIDEQRDWFDSFLIQYQESEKVGEAIVLTVPGSERSYDLTGLKPGTEYTVSIYGVYHVYRSNPLSAIFTT | 5.8 nM | binds |  |
| P258AR6P1071_F04 (designed binder, not shown: C-terminal poly-histidine tag) LPAPKNLVVSRVTEDSARLSWVIDEQRDWFDSFLIQYQESEKVGEAIVLTVPGSERSYDLTGLKPGTEYTVSIYGVYHVYRSNPLSAIFTT | 5.4 nM | binds |  |
| P233FR9P1001_B5-5 (designed binder, not shown: C-terminal poly-histidine tag) LPAPKNLVVSRVTEDSARLSWTAPDAAFDSFTIGYWEWDDDGEAIVLTVPGSERSYDLTGLKPGTEYPVYIAGVKGGQWSFPLSAIFTT | 0.5 nM |  | binding result [4]: binds |
| P233FR9P1001_H3-1 (designed binder, not shown: C-terminal poly-histidine tag) LPAPKNLVVSRVTEDSARLSWTAPDAAFDSFPIGYWEWDDDGEAIVLTVPGSERSYDLTGLKPGTEYHVYIAGVKGGQWSFPLSAIFTT | 0.4 nM |  | binding result [4]: binds; LNCaP cells IC50 (nM), cytotoxicity of FN3 domain-drug conjugate [3]: 0.4 nM; MDA-PCA-2B cells IC50 (nM), cytotoxicity of FN3 domain-drug conjugate [3]: 4.6 nM; VCAP cells IC50 (nM), cytotoxicity of FN3 domain-drug conjugate [3]: 15.2 nM |
| P233FR9P1001_D9 (designed binder, not shown: C-terminal poly-histidine tag) LPAPKNLVVSRVTEDSARLSWTAPDAAFDSFPIGYWEWDDDGEAIVLTVPGSERSYDLTGLKPGTEYWVYIAGVKGGQWSFPLSAIFTT | 1.4 nM |  | binding result [4]: binds |
| CD3B154 (antibody, human IgG1, V domains shown, Humanized SP34 variant; human IgG1 constant region with L234A, L235A, F405L; human lambda constant region; also called CDB154) VH: EVQLLESGGGLVQPGGSLRLSCAASGFTFNTYAMNWVRQAPGKGLEWVARIRSKYNNYATYYADSVKGRFTISRDNSKNTLYLQMNSLRAEDTAVYYCVKHGNFGNSYVSWFAYWGQGTLVTVSS VL: QTVVTQEPSLTVSPGGTVTLTCRSSTGAVTTSNYANWVQQKPGQAPRGLIGGTNKRAPGTPARFSGSLLGGKAALTLSGVQPEDEAEYYCALWYSNLWVFGGGTKLTVL |  |  | binding result [5]: binds; binding result [6]: binds |
| CD3B152 (antibody, human IgG1, V domains shown, Humanized SP34 variant; human IgG1 constant region with L234A, L235A, F405L; human lambda constant region; also called CDB152) VH: EVQLLESGGGLVQPGGSLRLSCAASGFTFNTYAMNWVRQAPGKGLEWVARIRSKYNNYATYYADSVKGRFTISRDNSKNTLYLQMNSLRAEDTAVYYCVKHGNFGNSYVSWFAYWGQGTLVTVSS VL: QSVLTQPPSVSAAPGQKVTISCRSSTGAVTTSNYANWVQQLPGTAPKGLIGGTNKRAPGIPDRFSGSKSGTSATLGITGLQTGDEADYYCALWYSNLWVFGGGTKLTVL |  |  | binding result [6]: no binding |
| CD3B144 (antibody, human IgG1, V domains shown, Humanized SP34 variant; human IgG1 constant region with L234A, L235A, F405L; human lambda constant region; also called CDB144) VH: EVQLVESGGGLVQPGGSLRLSCAASGFTFNTYAMNWVRQAPGKGLEWVARIRSKYNNYATYYAASVKGRFTISRDDSKNSLYLQMNSLKTEDTAVYYCARHGNFGNSYVSWFAYWGQGTLVTVSS VL: QSVLTQPPSVSAAPGQKVTISCRSSTGAVTTSNYANWVQQLPGTAPKGLIGGTNKRAPGIPDRFSGSKSGTSATLGITGLQTGDEADYYCALWYSNLWVFGGGTKLTVL |  |  | binding result [6]: no binding |
| P234CR9_A7 (designed binder, also called P234CR9_A07; not shown: C-terminal poly-histidine tag) LPAPKNLVVSRVTEDSARLSWGEQFTIFDSFLIQYQESEKVGEAIVLTVPGSERSYDLTGLKPGTEYTVSIYGASGYEWFHAFGSSNPLSAIFTT | 8.8 nM | binds |  |
| P229CR5P819_H11 (designed binder, In the cytotoxicity assays it was conjugated to vc-MMAF (cysteine-maleimide chemistry or sortase reaction); also called P229CR9P819-H11; not shown: C-terminal poly-histidine tag) LPAPKNLVVSRVTEDSARLSWDIDEQRDWFDSFLIQYQESEKVGEAIVLTVPGSERSYDLTGLKPGTEYTVSIYGVYHVYRSSNPLSAIFTT | 20.7 nM |  | binding result [4]: binds; LNCaP cells IC50 (nM), cytotoxicity of FN3 domain-drug conjugate [3]: 9.3 nM; MDA-PCA-2B cells IC50 (nM), cytotoxicity of FN3 domain-drug conjugate [3]: 107 nM; VCAP cells IC50 (nM), cytotoxicity of FN3 domain-drug conjugate [3]: 231 nM |
